Measurements: FireProtDB (doi:10.1021/bi701365e)
Where “and” joins values, the source holds several entries; their conditions need not be identical. Identical values can stand only once.

Settings: Helicobacter pylori (strain ATCC 700392 / 26695), pH 9, Thermal, EPPS 50 mM, reversible: Yes (>80%), whole UniProt chain shown

B1: Flavodoxin wild type, O25776 (protein)
chain: MGKIGIFFGTDSGNAEAIAEKISKAIGNAEVVDVAKASKEQFNSFTKVILVAPTAGAGDLQTDWEDFLGTLEASDFATKTIGLVGLGDQDTYSETFAEGIFHIYEKAKAGKVVGQTPTDGYHFEASKAVEGGKFVGLVIDEDNQDDLTDERISKWVEQVKGSFA
- unfolding enthalpy (van 't Hoff) (DSC, transition: 3): 29 kcal/mol and 50 kcal/mol
- unfolding enthalpy (van 't Hoff) (Fluorescence, transition: 4): 44 kcal/mol
